From patent US20150283214A1

Biological target: α5β1 integrin on mouse embryonic fibronectin-null fibroblasts (mouse) (UniProt P11688)
Assay: cell-based or functional assay

Chain of Human plasma fibronectin, P02751 32-2477 (other; Alexa^488 label where used as FN^488) (P02751 other isoform, or with tags, fused parts or gaps): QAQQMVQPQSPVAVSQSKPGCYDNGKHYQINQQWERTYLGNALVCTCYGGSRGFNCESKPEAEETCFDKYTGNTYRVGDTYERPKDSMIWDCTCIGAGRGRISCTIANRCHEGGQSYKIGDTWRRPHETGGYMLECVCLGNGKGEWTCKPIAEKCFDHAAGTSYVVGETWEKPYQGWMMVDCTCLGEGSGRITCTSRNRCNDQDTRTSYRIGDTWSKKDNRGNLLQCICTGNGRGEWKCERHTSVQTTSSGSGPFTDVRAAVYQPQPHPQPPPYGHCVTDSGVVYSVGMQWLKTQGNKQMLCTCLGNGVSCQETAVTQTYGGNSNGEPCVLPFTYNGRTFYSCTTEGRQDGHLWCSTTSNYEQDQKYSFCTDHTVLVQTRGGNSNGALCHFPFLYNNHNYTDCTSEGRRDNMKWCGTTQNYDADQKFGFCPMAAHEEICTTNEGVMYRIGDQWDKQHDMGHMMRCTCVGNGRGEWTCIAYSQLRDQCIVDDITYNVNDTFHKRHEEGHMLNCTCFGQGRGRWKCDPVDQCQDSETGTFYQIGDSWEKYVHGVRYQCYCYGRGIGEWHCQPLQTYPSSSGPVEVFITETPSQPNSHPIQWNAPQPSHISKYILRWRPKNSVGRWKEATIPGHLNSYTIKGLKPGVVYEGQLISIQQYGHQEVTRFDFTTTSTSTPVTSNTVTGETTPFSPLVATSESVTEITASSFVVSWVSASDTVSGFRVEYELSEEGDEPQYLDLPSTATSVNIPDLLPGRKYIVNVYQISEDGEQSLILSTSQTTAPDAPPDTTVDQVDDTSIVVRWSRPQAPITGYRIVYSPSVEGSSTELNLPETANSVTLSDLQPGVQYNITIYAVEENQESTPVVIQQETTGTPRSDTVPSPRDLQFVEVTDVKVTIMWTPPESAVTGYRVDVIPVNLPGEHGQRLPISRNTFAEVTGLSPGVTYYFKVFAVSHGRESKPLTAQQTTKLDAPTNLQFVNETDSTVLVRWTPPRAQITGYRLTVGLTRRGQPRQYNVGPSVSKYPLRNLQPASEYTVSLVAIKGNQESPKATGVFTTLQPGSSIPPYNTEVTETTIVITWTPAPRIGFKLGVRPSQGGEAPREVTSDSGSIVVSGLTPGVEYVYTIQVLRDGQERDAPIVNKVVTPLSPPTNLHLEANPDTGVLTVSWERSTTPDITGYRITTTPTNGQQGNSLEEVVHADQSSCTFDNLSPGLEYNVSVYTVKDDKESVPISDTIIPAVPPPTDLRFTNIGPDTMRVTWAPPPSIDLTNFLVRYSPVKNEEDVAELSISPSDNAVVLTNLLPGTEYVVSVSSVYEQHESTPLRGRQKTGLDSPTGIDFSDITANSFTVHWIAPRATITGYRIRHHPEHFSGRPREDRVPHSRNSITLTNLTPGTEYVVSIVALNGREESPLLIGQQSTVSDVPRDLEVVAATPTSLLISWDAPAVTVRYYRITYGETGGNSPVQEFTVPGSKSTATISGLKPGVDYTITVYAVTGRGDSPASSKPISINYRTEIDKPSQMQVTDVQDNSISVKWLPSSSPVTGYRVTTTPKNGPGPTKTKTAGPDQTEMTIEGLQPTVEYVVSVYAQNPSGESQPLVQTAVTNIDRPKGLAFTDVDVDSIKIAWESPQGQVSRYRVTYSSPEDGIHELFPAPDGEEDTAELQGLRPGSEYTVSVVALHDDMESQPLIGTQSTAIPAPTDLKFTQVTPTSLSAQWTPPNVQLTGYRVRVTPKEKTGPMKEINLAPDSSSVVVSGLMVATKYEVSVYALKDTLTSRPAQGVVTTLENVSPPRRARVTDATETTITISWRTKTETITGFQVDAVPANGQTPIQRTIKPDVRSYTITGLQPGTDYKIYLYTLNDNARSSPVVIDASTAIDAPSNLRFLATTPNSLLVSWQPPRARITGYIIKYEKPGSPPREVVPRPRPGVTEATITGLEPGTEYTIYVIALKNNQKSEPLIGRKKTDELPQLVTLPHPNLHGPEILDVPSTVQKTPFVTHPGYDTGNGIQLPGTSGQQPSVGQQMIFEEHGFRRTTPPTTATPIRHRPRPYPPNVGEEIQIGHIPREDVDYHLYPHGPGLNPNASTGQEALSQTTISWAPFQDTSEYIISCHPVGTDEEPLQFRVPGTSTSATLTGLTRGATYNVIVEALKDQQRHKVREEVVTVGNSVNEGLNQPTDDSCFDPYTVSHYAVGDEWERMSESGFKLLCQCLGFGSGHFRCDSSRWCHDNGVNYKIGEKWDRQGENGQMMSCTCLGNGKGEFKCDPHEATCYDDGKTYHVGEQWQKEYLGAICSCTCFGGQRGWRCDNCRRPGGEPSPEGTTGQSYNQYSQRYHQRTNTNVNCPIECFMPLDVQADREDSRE
Chain of α5β1 integrin on mouse embryonic fibronectin-null fibroblasts (mouse) (P11688 45-1053, chain 1 of 2): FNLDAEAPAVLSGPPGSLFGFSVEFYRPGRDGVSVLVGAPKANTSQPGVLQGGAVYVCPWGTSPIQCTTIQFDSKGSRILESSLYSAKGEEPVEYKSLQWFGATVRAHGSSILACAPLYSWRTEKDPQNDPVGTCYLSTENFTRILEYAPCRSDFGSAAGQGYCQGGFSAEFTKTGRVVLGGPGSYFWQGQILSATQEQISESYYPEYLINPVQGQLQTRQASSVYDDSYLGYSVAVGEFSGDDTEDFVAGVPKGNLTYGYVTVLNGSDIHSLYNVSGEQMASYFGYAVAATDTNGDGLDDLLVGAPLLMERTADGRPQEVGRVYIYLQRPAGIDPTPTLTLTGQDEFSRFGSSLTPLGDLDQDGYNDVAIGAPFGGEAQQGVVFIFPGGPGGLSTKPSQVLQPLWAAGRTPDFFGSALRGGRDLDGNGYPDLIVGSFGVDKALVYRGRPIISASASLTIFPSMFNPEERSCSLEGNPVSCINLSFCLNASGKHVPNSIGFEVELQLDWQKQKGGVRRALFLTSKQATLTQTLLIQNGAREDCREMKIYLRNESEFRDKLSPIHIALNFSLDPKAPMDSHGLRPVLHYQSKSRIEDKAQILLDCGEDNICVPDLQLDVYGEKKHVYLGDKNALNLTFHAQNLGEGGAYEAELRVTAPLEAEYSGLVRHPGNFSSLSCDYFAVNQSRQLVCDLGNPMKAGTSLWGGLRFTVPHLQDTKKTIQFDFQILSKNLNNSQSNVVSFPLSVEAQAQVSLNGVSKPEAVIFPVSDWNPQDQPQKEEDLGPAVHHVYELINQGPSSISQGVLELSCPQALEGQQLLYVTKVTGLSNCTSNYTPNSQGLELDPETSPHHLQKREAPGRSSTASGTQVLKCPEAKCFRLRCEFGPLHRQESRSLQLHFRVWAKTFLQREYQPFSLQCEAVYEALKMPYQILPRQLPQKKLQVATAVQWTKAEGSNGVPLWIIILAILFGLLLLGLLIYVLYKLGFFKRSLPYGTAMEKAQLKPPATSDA
Chain of α5β1 integrin on mouse embryonic fibronectin-null fibroblasts (mouse) (P09055 21-798, chain 2 of 2, further chain): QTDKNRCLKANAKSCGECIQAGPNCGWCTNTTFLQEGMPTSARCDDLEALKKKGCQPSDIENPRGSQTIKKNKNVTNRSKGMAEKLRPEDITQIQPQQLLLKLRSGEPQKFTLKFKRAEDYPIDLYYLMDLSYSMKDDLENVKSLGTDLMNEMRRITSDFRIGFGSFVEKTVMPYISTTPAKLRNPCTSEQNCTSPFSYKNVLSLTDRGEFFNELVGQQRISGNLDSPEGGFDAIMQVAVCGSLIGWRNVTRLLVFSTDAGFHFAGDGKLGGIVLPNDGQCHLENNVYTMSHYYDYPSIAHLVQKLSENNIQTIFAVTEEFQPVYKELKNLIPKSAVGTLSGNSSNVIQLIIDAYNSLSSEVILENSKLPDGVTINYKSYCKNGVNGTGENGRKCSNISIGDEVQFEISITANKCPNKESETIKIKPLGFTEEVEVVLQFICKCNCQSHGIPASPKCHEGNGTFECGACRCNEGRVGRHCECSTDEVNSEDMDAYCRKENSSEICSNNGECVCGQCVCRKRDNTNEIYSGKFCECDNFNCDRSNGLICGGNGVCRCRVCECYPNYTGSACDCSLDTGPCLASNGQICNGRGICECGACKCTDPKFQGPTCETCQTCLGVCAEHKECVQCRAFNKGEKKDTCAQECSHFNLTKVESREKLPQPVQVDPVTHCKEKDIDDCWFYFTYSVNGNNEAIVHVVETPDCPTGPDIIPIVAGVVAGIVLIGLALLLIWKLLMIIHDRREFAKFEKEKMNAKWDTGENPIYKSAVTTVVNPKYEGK

With “Human plasma fibronectin, P02751 32-2477 (other; Alexa^488 label where used as FN^488)” the reduction of FN-null MEF adhesion to full-length fibronectin by α5 integrin-blocking antibody was 53% and the reduction of FN-null MEF adhesion to full-length fibronectin by β1 integrin-blocking antibody was 71.3%.
